Experimental data taken from article PMC5762634, “Domain swapping and SMYD1 interactions with the PWWP domain of human hepatoma-derived growth factor” (Scientific Reports, 2018).

Target: the molecule itself
Experiment: SEC; Superdex-200; apo PWWP domain at higher initial concentration (proportion of dimer rises with concentration); 20 mM Tris-HCl, 5 mM EDTA, 5 mM beta-ME, pH 7.5

B1: human HDGF PWWP domain (residues 1-100) (domain or fragment)
chain: not shown
notes: human hepatoma-derived growth factor (HDGF), N-terminal PWWP domain, the first 100 amino acids; Subcloned into the NdeI and EcoRI sites of pET28a; also called apo PWWP domain; HDGF PWWP_(1-100) domain; source: E. coli BL21-Codon Plus-RIL, purified (Ni2+-NTA, Hitrap Q, Superdex-200)
  stoichiometry N: 2
